In patent US20250188133A1, “CHIMERIC BACTERIOCINS AND METHOD FOR THE CONTROL OF PSEUDOMONAS” (priority 2022, published 2025):

What was measured:
Format in all cases: cell-based
[1] = tested on: P. aeruginosa UR78; test: agar disc-diffusion assay; conditions: strain UR78; 0.3, 3 and 30 μg of protein spotted on discs on CAA agar lawn, overnight
Experimental: (§1) Overnight P. aeruginosa cultures grown in CAA medium were equalized till OD595=1.0 in CAA and diluted 100×. Sterile cotton swab was briefly submerged in diluted microbial suspension, removing the excess of liquid by pressing it against the container wall. The swab was used for evenly streaking bacteria on plates containing growth medium with CAA solid agar (1.5%). 6 mm diameter sterile Whatman discs were placed on soft-agar and 0.3-30 μg of chimeric pyocins were spotted to paper disks. The plates were incubated overnight at 37° C. and bacteriocin inhibition zones were observed.
(§2) Next, all 25 P. aeruginosa strains were subjected to agar disc-diffusion assay by spotting different amounts of purified pyocin S5 (0.3 μg, 3 μg and 30 μg) on bacteria lawns. Six P. aeruginosa strains were resistant to pyocin S5. Four of these six strains were pyocin S5 and immunity protein-encoding strains—PA14, PAO1, […] and NCTC 13921. Two cystic fibrosis isolates, 12-35708 and 12-29165 were also completely resistant to pyocin S5, despite the absence of S5, or S5 immunity protein coding genes. […] Turbid inhibition zones were detected when 3 μg and 30 μg of S5 were spotted on the lawn of these strains (Table 1, FIG. 3).

[2] = tested on: P. aeruginosa HP7; test: agar disc-diffusion assay; conditions: strain HP7; 0.3, 3 and 30 μg of protein spotted on discs on CAA agar lawn, overnight
Experimental: as §1, §2

[3] = tested on: P. aeruginosa 13-18499; test: agar disc-diffusion assay; conditions: strain 13-18499; 0.3, 3 and 30 μg of protein spotted on discs on CAA agar lawn, overnight
Experimental: as §1, §2

[4] = tested on: P. aeruginosa BI80; test: agar disc-diffusion assay; conditions: strain BI80; 0.3, 3 and 30 μg of protein spotted on discs on CAA agar lawn, overnight
Experimental: as §1, §2

[5] = tested on: P. aeruginosa Bu002; test: agar disc-diffusion assay; conditions: strain Bu002; 0.3, 3 and 30 μg of protein spotted on discs on CAA agar lawn, overnight
Experimental: as §1, §2

[6] = tested on: P. aeruginosa ATCC 29260; test: agar disc-diffusion assay; conditions: strain ATCC 29260; 0.3, 3 and 30 μg of protein spotted on discs on CAA agar lawn, overnight
Experimental: as §1, §2

[7] = tested on: P. aeruginosa NCTC 13921; test: agar disc-diffusion assay; conditions: strain NCTC 13921; 0.3, 3 and 30 μg of protein spotted on discs on CAA agar lawn, overnight
Experimental: as §1, §2

[8] = tested on: P. aeruginosa HP52; test: agar disc-diffusion assay; conditions: strain HP52; 0.3, 3 and 30 μg of protein spotted on discs on CAA agar lawn, overnight
Experimental: as §1, §2

[9] = tested on: P. aeruginosa A19; test: agar disc-diffusion assay; conditions: strain A19; 0.3, 3 and 30 μg of protein spotted on discs on CAA agar lawn, overnight
Experimental: as §1, §2

[10] = tested on: P. aeruginosa HP6; test: agar disc-diffusion assay; conditions: strain HP6; 0.3, 3 and 30 μg of protein spotted on discs on CAA agar lawn, overnight
Experimental: as §1, §2

[11] = tested on: P. aeruginosa BL77; test: agar disc-diffusion assay; conditions: strain BL77; 0.3, 3 and 30 μg of protein spotted on discs on CAA agar lawn, overnight
Experimental: as §1, §2

[12] = tested on: P. aeruginosa HP40; test: agar disc-diffusion assay; conditions: strain HP40; 0.3, 3 and 30 μg of protein spotted on discs on CAA agar lawn, overnight
Experimental: as §1, §2

[13] = tested on: P. aeruginosa Boston 41501 (ATCC 27853); test: agar disc-diffusion assay; conditions: strain Boston; 0.3, 3 and 30 μg of protein spotted on discs on CAA agar lawn, overnight
Experimental: as §1, §2

[14] = tested on: P. aeruginosa Pr335; test: agar disc-diffusion assay; conditions: strain Pr335; 0.3, 3 and 30 μg of protein spotted on discs on CAA agar lawn, overnight
Experimental: as §1, §2

[15] = tested on: P. aeruginosa HP41; test: agar disc-diffusion assay; conditions: strain HP41; 0.3, 3 and 30 μg of protein spotted on discs on CAA agar lawn, overnight
Experimental: as §1, §2

[16] = tested on: P. aeruginosa HP1; test: agar disc-diffusion assay; conditions: strain HP1; 0.3, 3 and 30 μg of protein spotted on discs on CAA agar lawn, overnight
Experimental: as §1, §2

[17] = tested on: P. aeruginosa PAO1; test: agar disc-diffusion assay; conditions: strain PAO1; 0.3, 3 and 30 μg of protein spotted on discs on CAA agar lawn, overnight
Experimental: as §1, §2

[18] = tested on: P. aeruginosa strains; test: agar disc-diffusion assay, panel of 25 strains; conditions: panel of 25 P. aeruginosa strains, in words
Experimental: as §1, §2

B1: S5-Pflu618: chimeric bacteriocin SEQ ID NO: 21: pyocin S5 first segment fused to P. fluorescens Pflu618 killing domain (protein)
chain: MSNDNEVPGSMVIVAQGPDDQYAYEVPPIDSAAVAGNMFGDLIQREIYLQKNIYYPVRSIFEQGTKEKKEINKKVSDQVDGLLKQITQGKREATRQERVDVMSAVLHKMESDLEGYKKTFTKGPFIDYEKQSSLSIYEAWVKIWEKNSWEERKKYPFQQLVRDELERAVAYYKQDSLSEAVKVLRQELNKQKALKEKEDLSQLERDYRTRKANLEMKVQSELDQAGSALPPLVSPTPEQWLERATRLVTQAIADKKQLQTTNNTLIKNSPTPLEKQKAIYNGELLVDEIASLQARLVKLNAETTRRRTEAEAEAKRIDDYKRAVAFVADANKYILEKYGANLHQVVMDLQKDISGKKIRSYAEAMQTFEAVRTNPNARLSPQDTRAVVDALNALDKATYMDSVNKLAKGFGVTGKIVQAHSVIEKTVIGFRDGNWKPLILELESIALGAGAGAAVATLLAVFSPGFAASAIGIVAVGVAIATIASLLNADNVEKINVFISDHLETALKEQR
modifications: S5-Pflu618
Activity in agar disc-diffusion assay [1]: * (activity detected only with 30 μg of protein)
Activity in agar disc-diffusion assay [2]: ** (activity detected with 3 μg of protein)
Activity in agar disc-diffusion assay [3]: * (activity detected only with 30 μg of protein)
Activity in agar disc-diffusion assay [4]: * (activity detected only with 30 μg of protein)
Activity in agar disc-diffusion assay [5]: ** (activity detected with 3 μg of protein)
Activity in agar disc-diffusion assay [6]: * (activity detected only with 30 μg of protein)
Activity in agar disc-diffusion assay [7]: * (activity detected only with 30 μg of protein)
Activity in agar disc-diffusion assay [8]: * (activity detected only with 30 μg of protein)
Activity in agar disc-diffusion assay [9]: *** (activity detected with 0.3 μg of protein)
Activity in agar disc-diffusion assay [10]: * (activity detected only with 30 μg of protein)
Activity in agar disc-diffusion assay [11]: * (activity detected only with 30 μg of protein)
Activity in agar disc-diffusion assay [12]: ** (activity detected with 3 μg of protein)
Activity in agar disc-diffusion assay [13]: ** (activity detected with 3 μg of protein)
Activity in agar disc-diffusion assay [14]: ** (activity detected with 3 μg of protein)
Activity in agar disc-diffusion assay [15]: ** (activity detected with 3 μg of protein)
Activity in agar disc-diffusion assay [16]: ** (activity detected with 3 μg of protein)
Activity in agar disc-diffusion assay [17]: ** (activity detected with 3 μg of protein)
activity spectrum / profile in agar disc diffusion assay [18]: weaker and less broad activity in comparison to pyocin S5
